Measurements reported in patent publication US20220000762A1, “COMPOSITIONS FOR TREATING OXIDATIVE STRESS-ASSOCIATED SKIN DISEASES AND SKIN AGEING AND DIAGNOSIS OF OXIDATIVE STRESS-ASSOCIATED SKIN DISEASES” (priority 2019, published 2022).

Assays:
[1] = RoxP interaction with coproporphyrin III (absorbance curves); type: binding; details: 1 mg/ml RoxP (100 μl) with 50 μg Coproporphyrin
Method: 1 mg/ml RoxP (100 μl) was mixed with 50 μg Coproporphyrin (10 μl) and total volume was adjusted to 290 μl with PBS. Absorbance was measured at different wavelengths. The absorbance curves indicate binding of coproporphyrin III by RoxP (see FIG. 26).

Phenantroline assay = type: biochemical; details: 10 μg or 20 μg RoxP
Method: Phenantroline chelates specifically Fe^2+ and generates absorbance at 550 nm.
A reaction mixture containing 0.7 mM ammonium iron (II) sulfate hexahydrate (from 1.4 mM working solution in PBS) or 0.5 mM ammonium iron (III) sulfate dodecahydrate (from 1.0 mM working solution in PBS); and further containing 10 μg or 20 μg RoxP (from 2 mg/ml RoxP working solution in PBS) or equivalent volume of PBS as control; and further containing 0.75 mM phenatroline (from 5 mM working solution in PBS); total volume 200 μl; was incubated for 15 minutes at room temperature. Absorbance was read at 550 nm.

healthy subjects = test: UVA/UVB-irradiation study in human subjects: skin color a* (erythema) by Chromameter; type: in vivo; details: topical, 1.25 MED UV, n=7
Method: The objective of this study was to assess the UV-protection potential of three compositions containing RoxP in 7 healthy subjects by measuring the antioxidative effect and skin erythema. Oxidative stress was induced by exposition to UVA- and UVB-light to the skin on the upper back. The anti-oxidative activity of the test products was evaluated by measurement of sebum lipid oxidization levels (concentration of squalene monohydroperoxide) of swab-samples from the skin surface. The potential was assessed after two applications of RoxP in comparison to water, an untreated control and one hydrophilic standard antioxidant (H1) after induction of a light sunburn (1.25 MED). […] Additionally, the UV-protection potential of the products was evaluated by measuring the produced erythema (Chromameter). […]
Erythema was evaluated (Chromameter) at t1=baseline before irradiation, t2=30 to 50 minutes after irradiation, and t3=16 to 24 hours after irradiation. Squalene monohydroperoxide (SQOOH) was quantified at 25 to 45 minutes after irradiation. […]
On Day 2, subjects returned to the Study Site 20±4 hours after irradiation. […] The reading of the MED was performed and the irradiation time for 1 MED was determined. The correct dose for the irradiation of test areas was calculated by multiplying the irradiation dose of 1 MED with the factor for irradiation (1.25). […]

[2] = ABTS radical cation assay; type: biochemical
Method: FIG. 4: RoxP antioxidant activity under adverse conditions. The ability of RoxP to reduce ABTS radical cations, denoted by a decrease in absorbance at 734 nm, was tested in multiple settings. Different concentrations of recombinant RoxP (rRoxP) (0.2-3.2 μM) in sodium phosphate buffer (20 mM, pH 7.4) (A), rRoxP (2.7 μM) incubated with salt solutions (B), pre-heated rRoxP (2.7 μM) incubated for 20 min in temperatures ranging from RT to 98° C. and allowed to cool down to ambient temperature prior to activity measurements (C), or rRoxP (2 μM) stored at room temperature for up to 2 weeks (D) were added to a solution of pre-formed ABTS radicals and the absorbance recorded after 30 sec.
The reduction of pre-formed ABTS radical cations in the presence of RoxP was analysed using a spectrophotometric assay previously described by Re et al. (1999 Free Radic Biol Med 26:1231-1237). 2,2′-azinobis(3-ethylbenzothiazoline-6-sulfonic acid) diammonium salt (ABTS) (Sigma-Aldrich) was initially dissolved in ddH2O to a concentration of […]. Potassium persulfate (Merck KGaA, Darmstadt, Germany) was subsequently added to a final concentration of 2.45 mM and the resulting solution kept dark and incubated overnight at RT. Formed ABTS radicals were diluted with PBS (pH 7.4) until reaching an absorbance of approximately 0.7 at 734 nm. Antioxidants (1.7 μM) were added (1:9 v/v) and the absorbance spectrum 500 to 900 nm recorded after 30 sec.

B1: RoxP: radical oxygenase of Propionibacterium acnes, secreted antioxidant protein of C. acnes; SEQ ID NO: 1 for strain KPA171202 (protein)
chain: MFVQIAASLAAASSIALGIPGAATPIDESQLPVGPQVSVTDSAQHTGPFAASSPLTITVKPGAPCVRADGYQESMVTRVLDDKGHQVWTGTFDESKLIGGTGLGTATFHVGSPAAAFNFHGSERTTYRTLSYCAYPHYVNGTRERLSQVSVKTFMVDPALN
modifications: Cutibacterium acnes
binding of coproporphyrin III [1]: binding | reduction of Fe^3+ to Fe^2+ (absorbance at 550 nm) (Phenantroline assay; 0.5 mM ammonium iron (III) sulfate, 15 minutes): reduced Fe^3+ to Fe^2+ | effect on reaction when only Fe^2+ was present (Phenantroline assay; 0.7 mM ammonium iron (II) sulfate): did not affect | increase of skin color a* (median) (healthy subjects; during 24 hours, water control 6 units): 3.4 units | erythema 30-50 min after UV irradiation (healthy subjects): less erythrema than the water control | reduction of ABTS radical when FMN/FDN was added ([2]; RoxP 2 mg/ml 10 μl, FMN/FDN 1 mM 1 μl or 3 μl, especially FDN): increased reduction | activity after long-term storage at room temperature ([2]; rRoxP 2 μM stored at room temperature for up to 2 weeks): able to endure | antioxidant activity in presence of CaCl2 ([2]; rRoxP 2.7 μM incubated with salt solutions): loss of activity | temperature endured without any significant loss of activity ([2]; rRoxP 2.7 μM pre-heated 20 min, RT to 98° C., cooled before measurement): above 70 °C | antioxidant activity in presence of NaCl ([2]; rRoxP 2.7 μM, physiological concentrations of NaCl): withstood | reducing activity on ABTS radical cations ([2]; rRoxP 0.2-3.2 μM, sodium phosphate buffer 20 mM pH 7.4): concentration-dependent reducing activity
